In paper PMC8409790:

What follows are substances tested against FcRn/β2 microglobulin (UniProt P55899) (assay: SPR).

Row | Kd [µM] | Substance
1 | 5 | Guselkumab (antibody)
2 | 5 | Risankizumab (antibody)
3 | 5 | Tildrakizumab (antibody)
4 | 5 | Ustekinumab (antibody)
